B1: Hammerhead Ribozyme (parent)
chain: ACCGGAUGUGCUUUCCGGUCUGAUGAGUCCGUGAGGACGAAACAG

In the data set the parent is B1. Put plainly: self-cleavage, relative activity (ratio to wild type); higher = more cleavage; co-transcriptional.
As to AGCGGAUGUGCUUUCCGGUCUAAUGAGUCCGUGAGGACGAAACAG [C2G G22A], the self-cleavage turned out to be 0.292.
Take AGCGGAUGUGCUUUCCGGUCUUAUGAGUCCGUGAGGACGAAACAG [C2G G22U]: the self-cleavage was determined as 0.312.
As for AGCGGAUGUGCUUUCCGUUCUGAUGAGUCCGUGAGGACGAAACAG [C2G G18U], the self-cleavage is 0.669.
As to AGCGGAUGUGCUUUCCGCUCUGAUGAGUCCGUGAGGACGAAACAG [C2G G18C], the self-cleavage came out at 0.651.
AGCGGAUGUGCUUUCCGAUCUGAUGAGUCCGUGAGGACGAAACAG [C2G G18A]: the self-cleavage came to 0.459.
The result for AGCCGAUGUGCUUUCCGGUCUGAUGAGUCCGUGAGGACGAAACAG [C2G G4C] reads 0.233; that for AGCUGAUGUGCUUUCCGGUCUGAUGAGUCCGUGAGGACGAAACAG [C2G G4U], 0.219.
Regarding AGCAGAUGUGCUUUCCGGUCUGAUGAGUCCGUGAGGACGAAACAG [C2G G4A], the self-cleavage was 0.322.
Regarding AGCGGAUGUGCUUUCCGGUCUGCUGAGUCCGUGAGGACGAAACAG [C2G A23C], the self-cleavage amounted to 0.294.
In the case of AGCGGAUGUGCUUUCCGGUCUGUUGAGUCCGUGAGGACGAAACAG [C2G A23U], the self-cleavage is 0.321.
As to AGCGGAUGUGCUUUCCGGUCUGGUGAGUCCGUGAGGACGAAACAG [C2G A23G], the self-cleavage is 0.318.
As for AGCGGAUGUGCUUUCCUGUCUGAUGAGUCCGUGAGGACGAAACAG [C2G G17U], the self-cleavage amounted to 0.291.
Consider AGCGGAUGUGCUUUCCAGUCUGAUGAGUCCGUGAGGACGAAACAG [C2G G17A], for which the self-cleavage is 0.377.
For AGCGGAUGUGCUUUCCCGUCUGAUGAGUCCGUGAGGACGAAACAG [C2G G17C], the self-cleavage amounted to 0.329.
Consider AGCGGAUGUGCUUUCCGGUCUGAUGAGUCCGUGAGGACGAAACAG [C2G], for which the self-cleavage was found to be 0.455.
AGCGGAUGUGCUUUCCGGUCUGAUGAGUCCGUGAGGACGCAACAG [C2G A40C]: the self-cleavage was determined as 0.352.
With AGCGGAUGUGCUUUCCGGUCUGAUGAGUCCGUGAGGACGUAACAG [C2G A40U], the self-cleavage came out at 0.287.
For AGCGGAUGUGCUUUCCGGUCUGAUGAGUCCGUGAGGACGGAACAG [C2G A40G], the self-cleavage amounted to 0.266.
The result for AGCGGAUGUGCUUUGCGGUCUGAUGAGUCCGUGAGGACGAAACAG [C2G C15G] reads 0.29; that for AGCGGAUGUGCUUUACGGUCUGAUGAGUCCGUGAGGACGAAACAG [C2G C15A], 0.302.
Turning to AGCGGAUGUGCUUUUCGGUCUGAUGAGUCCGUGAGGACGAAACAG [C2G C15U], the self-cleavage came out at 0.304.
With AGCGGAUGUUCUUUCCGGUCUGAUGAGUCCGUGAGGACGAAACAG [C2G G10U], the self-cleavage was determined as 0.379.
The result for AGCGGAUGUACUUUCCGGUCUGAUGAGUCCGUGAGGACGAAACAG [C2G G10A] reads 0.383; that for AGCGGAUGUCCUUUCCGGUCUGAUGAGUCCGUGAGGACGAAACAG [C2G G10C], 0.38; that for AACGGAUGUGCUUUCCGGUCUGAUGAGUCCGAGAGGACGAAACAG [C2A U32A], 0.784.
The result for AACGGAUGUGCUUUCCGGUCUGAUGAGUCCGGGAGGACGAAACAG [C2A U32G] reads 0.469; that for AACGGAUGUGCUUUCCGGUCUGAUGAGUCCGCGAGGACGAAACAG [C2A U32C], 0.632.
Regarding AGCGGAUGUGCUUUCCGGUCUGAUGAGUCCGUGAGGAGGAAACAG [C2G C38G], the self-cleavage came out at 0.317.
The result for AGCGGAUGUGCUUUCCGGUCUGAUGAGUCCGUGAGGAAGAAACAG [C2G C38A] reads 0.336; that for AGCGGAUGUGCUUUCCGGUCUGAUGAGUCCGUGAGGAUGAAACAG [C2G C38U], 0.338.
The result for AGCGGAUGUGCUUUCCGGUAUGAUGAGUCCGUGAGGACGAAACAG [C2G C20A] reads 0.274.
With AGCGGAUGUGCUUUCCGGUUUGAUGAGUCCGUGAGGACGAAACAG [C2G C20U], the self-cleavage was found to be 0.344.
Turning to AGCGGAUGUGCUUUCCGGUGUGAUGAGUCCGUGAGGACGAAACAG [C2G C20G], the self-cleavage amounted to 0.297.
With AGCGGAUGUGCUUUCCGGUCUGAUGAGUCCGUGAGGACGAACCAG [C2G A42C], the self-cleavage was determined as 0.32.
The result for AGCGGAUGUGCUUUCCGGUCUGAUGAGUCCGUGAGGACGAAGCAG [C2G A42G] reads 0.273.
The result for AGCGGAUGUGCUUUCCGGUCUGAUGAGUCCGUGAGGACGAAUCAG [C2G A42U] reads 0.292.
In the case of AGCGGAUGUGCUUUCCGGUCUGAUGAGUCCGUGAGGACGAAAGAG [C2G C43G], the self-cleavage worked out at 0.308.
As for AGCGGAUGUGCUUUCCGGUCUGAUGAGUCCGUGAGGACGAAAAAG [C2G C43A], the self-cleavage was found to be 0.328.
The result for AGCGGAUGUGCUUUCCGGUCUGAUGAGUCCGUGAGGACGAAAUAG [C2G C43U] reads 0.305.
AACGGAUGUGCUAUCCGGUCUGAUGAGUCCGUGAGGACGAAACAG [C2A U13A]: the self-cleavage came out at 1.08.
For the variant AACGGAUGUGCUCUCCGGUCUGAUGAGUCCGUGAGGACGAAACAG [C2A U13C], the self-cleavage was found to be 1.05.
In the case of AACGGAUGUGCUGUCCGGUCUGAUGAGUCCGUGAGGACGAAACAG [C2A U13G], the self-cleavage worked out at 0.86.
Consider AGCGUAUGUGCUUUCCGGUCUGAUGAGUCCGUGAGGACGAAACAG [C2G G5U], for which the self-cleavage is 0.296.
The result for AGCGAAUGUGCUUUCCGGUCUGAUGAGUCCGUGAGGACGAAACAG [C2G G5A] reads 0.295; that for AGCGCAUGUGCUUUCCGGUCUGAUGAGUCCGUGAGGACGAAACAG [C2G G5C], 0.309.
Take AGCGGAUGUGCUUUCCGGUCUGAUGAGUCCGUGAGGACGAGACAG [C2G A41G]: the self-cleavage was determined as 0.369.
On to AGCGGAUGUGCUUUCCGGUCUGAUGAGUCCGUGAGGACGACACAG [C2G A41C], for which the self-cleavage came to 0.271.
The result for AGCGGAUGUGCUUUCCGGUCUGAUGAGUCCGUGAGGACGAUACAG [C2G A41U] reads 0.293; that for AGCGGAUGUGCUUUCCGGUCUGAUGAGUCCGUCAGGACGAAACAG [C2G G33C], 0.443; that for AGCGGAUGUGCUUUCCGGUCUGAUGAGUCCGUAAGGACGAAACAG [C2G G33A], 0.463.
As for AGCGGAUGUGCUUUCCGGUCUGAUGAGUCCGUUAGGACGAAACAG [C2G G33U], the self-cleavage amounted to 0.535.
For AGAGGAUGUGCUUUCCGGUCUGAUGAGUCCGUGAGGACGAAACAG [C2G C3A], the self-cleavage stood at 0.283.
The result for AGGGGAUGUGCUUUCCGGUCUGAUGAGUCCGUGAGGACGAAACAG [C2G C3G] reads 0.353; that for AGUGGAUGUGCUUUCCGGUCUGAUGAGUCCGUGAGGACGAAACAG [C2G C3U], 0.36; that for AGCGGAUGUGCUUUCCGGUCUGAUGAGUCCUUGAGGACGAAACAG [C2G G31U], 0.503.
On to AGCGGAUGUGCUUUCCGGUCUGAUGAGUCCCUGAGGACGAAACAG [C2G G31C], for which the self-cleavage amounted to 0.376.
For AGCGGAUGUGCUUUCCGGUCUGAUGAGUCCAUGAGGACGAAACAG [C2G G31A], the self-cleavage is 0.43.

The record behind these values is the RNAGym collection of RNA variant scans (doi:10.7554/elife.80360).
